# Source: PMC10687048
# Biological target: Chikungunya virus (CHIKV) nonstructural protein 1 (nsP1) H37A mutant (chikungunya virus)
# Assay: cryo-EM structure; nsP1-mut incubated with SAH and m7GpppAmU at 4 °C overnight; graphene-covered grids; refinement with C12 symmetry, 2.41 Å
substance,measurement,value
Chikungunya virus (CHIKV) nonstructural protein 1 (nsP1) H37A mutant (enzyme),stoichiometry N,12
